Values of other authors in PMC8864681.

Tests used:
Asp67 = Asp67 (UniProt position 1513, LKPGVDYTITV)
Asp14 = Asp14 (UniProt position 40, ERQHMDSSTSA)
Asp28 = Asp28 (UniProt position 50, MTDDIDEVRWE)
Asp26 = Asp26 (UniProt position 26, KLVVVDFSATW)

In the case of “Fibronectin, tenth type III cell adhesion module (FN10) (Homo sapiens)”, the pKa (Asp67) is listed as 4.2.

In the case of “Ribonuclease A (pancreatic ribonuclease) (Bos taurus)”, the pKa (Asp14) is listed as 2.0.

In the case of “T-cell surface antigen CD2 (cell adhesion molecule CD2) (Rattus rattus as printed ('black rat'); the PDB 1HNG source is commonly annotated as rat (Rattus norvegicus))”, the pKa (Asp28) is given as 3.57.

In the case of “Thioredoxin (recombinant human) (Homo sapiens)”, the pKa (Asp26) is listed as 9.9.
